For the test, the target named is T1, ColN_(90–387) (ColN-RP), receptor binding and pore forming domains of colicin N (Escherichia coli, UniProt P08083 90-387).
T1 construct: In PDB 1A87 the first resolved residue is S91; source: purified as previously described (20, 26); 15N-labelled protein from bacteria grown in M9 minimal medium with 15NH4Cl; not shown: His6 (-SSHHHHHH), C-terminal, kept
T1 sequence (looked up): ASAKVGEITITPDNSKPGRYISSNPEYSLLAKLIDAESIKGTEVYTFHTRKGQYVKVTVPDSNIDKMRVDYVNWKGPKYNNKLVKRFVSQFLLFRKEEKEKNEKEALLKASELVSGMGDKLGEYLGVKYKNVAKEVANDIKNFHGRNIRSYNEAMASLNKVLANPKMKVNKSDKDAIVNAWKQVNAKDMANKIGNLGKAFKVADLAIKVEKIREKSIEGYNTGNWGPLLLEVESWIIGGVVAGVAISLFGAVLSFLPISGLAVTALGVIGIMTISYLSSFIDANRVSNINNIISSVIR
Nature of the test: NMR titration; free unlabelled ColN-T added to 15N-labelled ColN-RP; 15N-1H HSQC chemical shift changes; spectra at 15°C. To be noted: both partners purified.

B1: ColN_(1–90) (ColN-T), isolated translocation domain of colicin N (domain or fragment)
chain: MGSNGADNAHNNAFGGGKNPGIGNTSGAGSNGSASSNRGNSNGWSWSNKPHKNDGFHSDGSYHITFHGDNNSKPKPGGNSGNRGNNGDGA
notes: colicin N (ColN), residues 1-90, the intrinsically disordered translocation (T-) domain; the whole toxin has 387 residues; 98-residue construct: residues 1-90 followed directly by Ser2His6; Used unlabelled in the NMR mixing experiment; also called T-domain; ColN-T(1-90)-SSHHHHHH; source: purified as previously described (20, 26), dialysed into 50 mM sodium phosphate, pH 7.6, 300 mM NaCl; not …
Turning to B1, the binding result is “binds”.

The values are drawn from paper PMC5647543, “The Two-State Prehensile Tail of the Antibacterial Toxin Colicin N” (Biophysical Journal, 2017).
